In the supplement of paper PMC10065799, “High-throughput profiling of sequence recognition by tyrosine kinases and SH2 domains using bacterial peptide display” (eLife, 2023):

Columns and labels:
[1] = target: SHP2-C SH2; assay: SH2 binding enrichment of the phosphorylated peptide, bacterial display (enrichment ratio); higher = better substrate or ligand; peptides without Tyr show the background
[2] = target: c-Src SH2; assay: as above
[3] = target: Grb2 SH2 (UniProt P62993); assay: as above
[4] = target: FGFR3 (UniProt P22607); assay: phosphorylation enrichment, bacterial display (enrichment ratio); higher = better substrate or ligand; peptides without Tyr show the background
[5] = target: EPHB2 (UniProt P29323); assay: as above
[6] = target: MERTK (UniProt Q12866); assay: as above
[7] = target: Fyn (UniProt P06241); assay: as above
[8] = target: FGFR1 (UniProt P11362); assay: as above
[9] = test system: AncSZ; assay: as above
[10] = test system: c-Src; assay: as above
[11] = target: Jak2 (UniProt O60674); assay: as above
[12] = target: Fes (UniProt P07332); assay: as above
[13] = target: Hck (UniProt P08631); assay: as above
[14] = target: EPHB1 (UniProt P54762); assay: as above
[15] = test system: Fer (mouse); assay: as above
[16] = test system: c-Abl (mouse); assay: as above
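For SH2 binding enrichment of the phosphorylated peptide, bacterial display in this document: peptide library displayed on the E. coli surface as eCPX fusions, selected cells deep-sequenced, score is each peptide's frequency after selection divided by its frequency in the input.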
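For phosphorylation enrichment, bacterial display in this document: 11-residue human phosphosite peptides and single-mutation variants displayed on the E. coli surface, counted by deep sequencing, each peptide's frequency after selection divided by its frequency in the unselected input library; frequency after pTyr selection over input frequency; kinase dosed for 20-30% of maximal phosphorylation in three min.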

MERTK, sequence (Q12866 whole entry, looked up): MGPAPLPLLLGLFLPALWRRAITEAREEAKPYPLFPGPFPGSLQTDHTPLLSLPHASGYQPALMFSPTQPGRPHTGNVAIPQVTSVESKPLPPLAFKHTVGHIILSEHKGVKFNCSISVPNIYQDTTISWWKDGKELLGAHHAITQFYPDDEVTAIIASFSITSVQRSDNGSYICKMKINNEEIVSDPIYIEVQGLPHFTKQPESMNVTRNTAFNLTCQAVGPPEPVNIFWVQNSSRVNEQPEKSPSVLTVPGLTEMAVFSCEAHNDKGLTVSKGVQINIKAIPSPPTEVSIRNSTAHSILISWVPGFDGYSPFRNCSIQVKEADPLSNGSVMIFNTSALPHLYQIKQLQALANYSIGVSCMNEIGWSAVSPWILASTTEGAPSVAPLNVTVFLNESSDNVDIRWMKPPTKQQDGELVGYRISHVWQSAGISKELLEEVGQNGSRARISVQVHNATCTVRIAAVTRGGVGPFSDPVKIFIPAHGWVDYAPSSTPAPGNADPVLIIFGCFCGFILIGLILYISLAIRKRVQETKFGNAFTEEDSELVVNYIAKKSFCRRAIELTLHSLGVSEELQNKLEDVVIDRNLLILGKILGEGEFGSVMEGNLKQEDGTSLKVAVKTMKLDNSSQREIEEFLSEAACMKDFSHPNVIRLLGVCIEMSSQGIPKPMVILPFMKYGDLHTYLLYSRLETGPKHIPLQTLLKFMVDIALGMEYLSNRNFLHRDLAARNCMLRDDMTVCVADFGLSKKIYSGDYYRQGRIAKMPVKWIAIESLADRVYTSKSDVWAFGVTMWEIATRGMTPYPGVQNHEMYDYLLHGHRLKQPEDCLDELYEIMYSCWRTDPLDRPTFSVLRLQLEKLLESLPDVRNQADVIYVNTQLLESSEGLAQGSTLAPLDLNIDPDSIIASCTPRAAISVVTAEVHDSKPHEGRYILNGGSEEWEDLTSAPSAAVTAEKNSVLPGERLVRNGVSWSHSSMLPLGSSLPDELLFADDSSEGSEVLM
Fes, sequence (P07332 whole entry, looked up): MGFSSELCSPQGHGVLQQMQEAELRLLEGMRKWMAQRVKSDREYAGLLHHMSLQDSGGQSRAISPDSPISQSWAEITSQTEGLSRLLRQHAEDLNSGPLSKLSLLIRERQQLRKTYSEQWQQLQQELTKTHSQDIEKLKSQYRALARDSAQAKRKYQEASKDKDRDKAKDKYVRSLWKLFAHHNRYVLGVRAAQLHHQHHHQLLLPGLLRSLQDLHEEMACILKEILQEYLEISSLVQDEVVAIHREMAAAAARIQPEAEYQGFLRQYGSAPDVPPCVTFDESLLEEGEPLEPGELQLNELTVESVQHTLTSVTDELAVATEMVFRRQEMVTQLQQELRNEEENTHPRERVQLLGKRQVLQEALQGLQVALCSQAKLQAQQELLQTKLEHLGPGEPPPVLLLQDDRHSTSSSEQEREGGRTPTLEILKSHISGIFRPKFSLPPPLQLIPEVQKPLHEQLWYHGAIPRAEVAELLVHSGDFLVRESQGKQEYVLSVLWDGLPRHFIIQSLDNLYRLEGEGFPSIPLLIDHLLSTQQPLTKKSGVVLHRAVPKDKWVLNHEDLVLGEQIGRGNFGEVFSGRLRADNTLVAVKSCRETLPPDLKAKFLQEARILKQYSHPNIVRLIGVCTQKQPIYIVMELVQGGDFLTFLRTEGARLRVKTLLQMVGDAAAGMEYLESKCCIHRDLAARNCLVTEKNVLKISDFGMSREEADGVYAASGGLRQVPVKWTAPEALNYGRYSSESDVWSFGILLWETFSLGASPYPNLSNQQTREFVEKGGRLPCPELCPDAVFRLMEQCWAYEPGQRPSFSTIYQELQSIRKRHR
Jak2, sequence (O60674 whole entry, looked up): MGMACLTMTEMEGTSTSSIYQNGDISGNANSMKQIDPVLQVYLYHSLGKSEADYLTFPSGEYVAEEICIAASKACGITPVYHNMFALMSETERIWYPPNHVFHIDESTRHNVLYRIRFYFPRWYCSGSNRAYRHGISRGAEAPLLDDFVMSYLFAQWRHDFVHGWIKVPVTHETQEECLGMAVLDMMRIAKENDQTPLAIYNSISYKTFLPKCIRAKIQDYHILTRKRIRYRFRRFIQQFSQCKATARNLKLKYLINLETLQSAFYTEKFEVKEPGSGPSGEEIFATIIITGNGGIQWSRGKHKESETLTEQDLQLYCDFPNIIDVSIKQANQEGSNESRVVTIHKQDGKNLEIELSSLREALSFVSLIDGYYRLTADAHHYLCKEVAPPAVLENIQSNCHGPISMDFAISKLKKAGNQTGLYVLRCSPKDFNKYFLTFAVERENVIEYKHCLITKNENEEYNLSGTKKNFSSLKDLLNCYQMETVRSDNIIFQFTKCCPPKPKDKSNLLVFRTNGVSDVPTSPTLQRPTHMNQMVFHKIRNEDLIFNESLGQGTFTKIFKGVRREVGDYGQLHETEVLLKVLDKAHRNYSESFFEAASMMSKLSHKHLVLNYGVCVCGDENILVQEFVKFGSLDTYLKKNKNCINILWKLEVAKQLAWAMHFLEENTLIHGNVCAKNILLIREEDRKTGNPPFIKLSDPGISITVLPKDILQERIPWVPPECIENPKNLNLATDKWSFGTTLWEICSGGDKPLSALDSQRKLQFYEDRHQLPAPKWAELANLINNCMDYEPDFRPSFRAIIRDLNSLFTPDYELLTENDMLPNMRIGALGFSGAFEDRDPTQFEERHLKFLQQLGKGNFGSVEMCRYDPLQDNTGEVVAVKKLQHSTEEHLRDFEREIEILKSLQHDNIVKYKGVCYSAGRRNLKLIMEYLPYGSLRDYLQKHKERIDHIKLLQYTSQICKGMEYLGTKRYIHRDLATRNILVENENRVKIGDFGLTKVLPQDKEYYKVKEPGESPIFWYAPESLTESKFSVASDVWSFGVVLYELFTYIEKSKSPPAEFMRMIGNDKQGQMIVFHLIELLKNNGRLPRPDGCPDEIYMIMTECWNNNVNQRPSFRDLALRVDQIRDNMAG
Grb2 SH2, sequence (P62993 whole entry, looked up): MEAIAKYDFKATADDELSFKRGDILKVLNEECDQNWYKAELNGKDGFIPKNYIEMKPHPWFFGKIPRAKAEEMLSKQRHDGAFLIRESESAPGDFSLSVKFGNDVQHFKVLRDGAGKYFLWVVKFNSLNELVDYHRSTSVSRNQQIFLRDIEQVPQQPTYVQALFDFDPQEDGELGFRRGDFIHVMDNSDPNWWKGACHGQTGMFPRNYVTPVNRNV
FGFR3, sequence (P22607 whole entry, looked up): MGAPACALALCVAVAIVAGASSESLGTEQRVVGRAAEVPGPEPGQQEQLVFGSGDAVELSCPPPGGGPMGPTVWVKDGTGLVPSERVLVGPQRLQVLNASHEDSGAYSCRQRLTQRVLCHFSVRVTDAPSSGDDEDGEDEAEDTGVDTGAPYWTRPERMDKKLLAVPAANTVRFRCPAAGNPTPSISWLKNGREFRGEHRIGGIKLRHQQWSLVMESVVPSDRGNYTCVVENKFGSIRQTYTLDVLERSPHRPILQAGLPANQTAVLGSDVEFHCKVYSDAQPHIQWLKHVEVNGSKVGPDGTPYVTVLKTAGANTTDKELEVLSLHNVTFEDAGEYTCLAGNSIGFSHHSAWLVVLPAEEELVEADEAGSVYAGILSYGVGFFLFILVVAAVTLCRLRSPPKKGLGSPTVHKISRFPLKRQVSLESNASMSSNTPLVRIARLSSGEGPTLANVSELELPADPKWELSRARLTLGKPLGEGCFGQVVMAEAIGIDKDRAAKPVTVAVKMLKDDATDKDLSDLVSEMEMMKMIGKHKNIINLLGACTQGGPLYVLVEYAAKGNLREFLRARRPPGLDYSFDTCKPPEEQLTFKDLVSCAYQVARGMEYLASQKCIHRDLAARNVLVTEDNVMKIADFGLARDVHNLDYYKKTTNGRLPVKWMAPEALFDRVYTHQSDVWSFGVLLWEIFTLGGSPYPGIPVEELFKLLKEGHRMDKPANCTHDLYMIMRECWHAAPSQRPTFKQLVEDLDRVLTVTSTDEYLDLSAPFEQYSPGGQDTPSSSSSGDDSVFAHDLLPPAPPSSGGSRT
Fyn, sequence (P06241 whole entry, looked up): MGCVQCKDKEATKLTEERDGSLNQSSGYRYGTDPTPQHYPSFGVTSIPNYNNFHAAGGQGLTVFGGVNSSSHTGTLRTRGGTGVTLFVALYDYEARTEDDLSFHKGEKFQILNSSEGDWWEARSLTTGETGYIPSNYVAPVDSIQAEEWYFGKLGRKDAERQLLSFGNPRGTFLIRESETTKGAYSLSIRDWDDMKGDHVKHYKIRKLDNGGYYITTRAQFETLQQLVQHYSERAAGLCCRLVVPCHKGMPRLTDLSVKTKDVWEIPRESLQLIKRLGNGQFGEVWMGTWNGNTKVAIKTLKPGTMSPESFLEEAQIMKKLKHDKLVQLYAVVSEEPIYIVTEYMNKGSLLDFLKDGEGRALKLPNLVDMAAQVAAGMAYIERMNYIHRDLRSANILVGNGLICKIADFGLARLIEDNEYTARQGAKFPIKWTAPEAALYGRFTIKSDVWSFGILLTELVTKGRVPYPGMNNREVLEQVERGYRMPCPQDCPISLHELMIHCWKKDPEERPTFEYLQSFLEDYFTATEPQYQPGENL
Hck, sequence (P08631 whole entry, looked up): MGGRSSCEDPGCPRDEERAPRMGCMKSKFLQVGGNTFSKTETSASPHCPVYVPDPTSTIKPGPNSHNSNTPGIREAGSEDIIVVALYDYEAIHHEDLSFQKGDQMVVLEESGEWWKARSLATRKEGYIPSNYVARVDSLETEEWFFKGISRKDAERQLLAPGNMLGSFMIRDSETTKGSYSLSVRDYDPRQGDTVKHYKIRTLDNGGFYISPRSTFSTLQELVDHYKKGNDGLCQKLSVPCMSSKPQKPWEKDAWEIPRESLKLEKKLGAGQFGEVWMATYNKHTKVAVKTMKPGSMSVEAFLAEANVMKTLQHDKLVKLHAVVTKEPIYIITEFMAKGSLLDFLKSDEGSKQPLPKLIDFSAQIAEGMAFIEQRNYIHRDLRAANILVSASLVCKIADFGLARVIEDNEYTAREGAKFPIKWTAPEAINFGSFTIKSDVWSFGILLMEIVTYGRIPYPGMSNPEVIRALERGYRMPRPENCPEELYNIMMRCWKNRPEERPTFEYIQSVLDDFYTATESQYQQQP

Sequence | SH2 binding enrichment [1] | SH2 binding enrichment [2] | SH2 binding enrichment [3] | phosphorylation enrichment [4] | phosphorylation enrichment [5] | phosphorylation enrichment [6] | phosphorylation enrichment [7] | phosphorylation enrichment [8] | phosphorylation enrichment [9] | phosphorylation enrichment [10] | phosphorylation enrichment [11] | phosphorylation enrichment [12] | phosphorylation enrichment [13] | phosphorylation enrichment [14] | phosphorylation enrichment [15] | phosphorylation enrichment [16]
TENAGYFFRVS | 0.583 | 0.466 | 0.724 | 0.853 | 0.565 | 0.369 | 0.389 | 0.442 | 1.25 | 0.41 | 1.45 | 1.36 | 0.457 | 0.614 | 0.536 | 1.15
TEQDPYNNIDR [MMUT_Y364_V368D] | 0.731 | 2.23 | 0.798 | 0.641 | 0.565 | 0.475 | 0.505 | 0.728 | 1.08 | 0.486 | 0.791 | 1.06 | 0.501 | 0.638 | 0.486 | 0.658
TFEPNYGTVKQ [RAPGEF6_Y1447_YF] | 0.794 | 0.523 | 0.826 | 0.63 | 1.53 | 0.442 | 1.36 | 0.471 | 1.01 | 1.22 | 0.488 | 0.607 | 0.822 | 0.582 | 0.881 | 0.522
TFQFKYPEGSS [TGM4_Y440_E437Q_YF] | 0.896 | 0.568 | 0.955 | 0.722 | 0.478 | 0.44 | 0.529 | 0.521 | 0.841 | 0.427 | 0.69 | 0.943 | 0.491 | 0.496 | 0.363 | 0.564
TGHKGYVAFLE [CARD9_Y76] | 0.81 | 1.93 | 0.739 | 0.507 | 0.466 | 0.396 | 0.358 | 0.414 | 0.674 | 0.394 | 0.635 | 0.666 | 0.494 | 0.392 | 0.403 | 0.617
TIEDSYRKQVV [KRAS_Y40] | 0.6 | 0.428 | 0.818 | 0.561 | 0.371 | 0.369 | 0.388 | 0.398 | 0.62 | 0.426 | 0.703 | 0.79 | 0.358 | 0.383 | 0.348 | 0.599
TIMTDYNPNFC [ALK_Y1092_YF] | 0.674 | 0.633 | 0.999 | 0.549 | 0.491 | 0.395 | 0.499 | 0.533 | 0.858 | 0.545 | 0.795 | 0.917 | 0.47 | 0.498 | 0.373 | 0.783
TINPIHEHVGY [CHN1_Y143_Y143H] | 0.87 | 0.58 | 0.823 | 0.414 | 0.433 | 0.446 | 0.377 | 0.426 | 0.679 | 0.423 | 0.864 | 0.727 | 0.474 | 0.674 | 0.757 | 0.57
TISPFYCQSLF [CRYAA_Y48_R49C_YF] | 0.707 | 0.632 | 0.912 | 0.723 | 0.579 | 1.8 | 0.571 | 0.535 | 1.05 | 0.516 | 0.992 | 1.2 | 0.643 | 0.682 | 0.837 | 0.768
TISPYYRQSLF [CRYAA_Y48] | 0.767 | 0.678 | 0.783 | 0.653 | 0.474 | 0.468 | 0.414 | 0.613 | 0.859 | 0.492 | 0.745 | 0.787 | 0.433 | 0.526 | 0.479 | 0.617
TKQLTYEEQDL [PIK3C3_Y310] | 0.686 | 0.541 | 0.786 | 0.791 | 0.653 | 0.483 | 0.529 | 0.576 | 1.27 | 0.539 | 1.19 | 1.38 | 0.552 | 0.655 | 0.649 | 1.01
TKVTFYKQPMF [GBA_Y451_D448V] | 0.737 | 0.453 | 0.777 | 0.631 | 0.526 | 0.419 | 0.506 | 0.461 | 0.981 | 0.337 | 0.853 | 0.936 | 0.458 | 0.439 | 0.42 | 0.588
TKVVHYWKWIK [KLK2_Y249_R250W] | 1.45 | 1.12 | 1.41 | 0.58 | 0.364 | 0.51 | 0.346 | 0.489 | 0.812 | 0.474 | 0.802 | 0.975 | 0.501 | 0.494 | 0.378 | 0.714
TLARLYHRDST [LRIG1_Y1029_P1031R] | 0.608 | 0.552 | 0.963 | 0.729 | 0.539 | 0.522 | 0.565 | 0.563 | 0.761 | 0.449 | 0.61 | 0.844 | 0.409 | 0.501 | 0.71 | 0.761
TLEKFYFAFPG [SLC1A1_Y51] | 0.92 | 0.589 | 1 | 6.62 | 2.85 | 7.49 | 1.9 | 8.55 | 1.53 | 3.75 | 3.54 | 1.18 | 1.62 | 1.98 | 0.496 | 7.49
TLLERYGMTKI [ACSF3_Y355_E359K] | 0.636 | 0.433 | 0.884 | 0.667 | 0.594 | 0.407 | 0.484 | 0.513 | 0.751 | 0.43 | 0.625 | 0.734 | 0.478 | 0.531 | 0.374 | 0.728
TLMNAYSSCSH [KIF11_Y231_R234C] | 0.658 | 1.24 | 0.808 | 0.566 | 0.566 | 0.496 | 0.462 | 0.436 | 0.702 | 0.45 | 0.642 | 0.803 | 0.557 | 0.465 | 0.599 | 0.597
TLPAFYMENFS [GLB1_Y552_G554E] | 0.638 | 0.484 | 0.853 | 0.855 | 0.789 | 0.947 | 0.484 | 0.439 | 1.19 | 0.735 | 1.37 | 1.62 | 0.523 | 1.25 | 0.64 | 1.2
TLQIMYGCDVG [HLA-A_Y123_I119L] | 0.577 | 0.546 | 0.851 | 0.887 | 0.606 | 0.459 | 0.528 | 0.619 | 1.23 | 0.673 | 1.4 | 1.34 | 0.625 | 0.594 | 0.654 | 0.997
TLQRMYGCDVG [HLA-B_Y123_S121R] | 0.454 | 0.493 | 0.851 | 0.771 | 0.665 | 0.545 | 0.568 | 0.5 | 0.857 | 0.554 | 1 | 1.14 | 0.501 | 0.535 | 0.542 | 0.816
TLSGIYQFNIA [FOXL2_Y81_I84N_YF] | 0.971 | 0.742 | 1 | 0.539 | 0.555 | 5.39 | 4.21 | 0.543 | 0.891 | 4.73 | 0.696 | 0.741 | 2.98 | 0.76 | 7.33 | 0.676
TLSGIYQFSIA [FOXL2_Y81_I84S_YF] | 0.836 | 0.533 | 1 | 0.952 | 1.05 | 6 | 5.53 | 0.852 | 1.31 | 5.19 | 0.919 | 1.04 | 3.82 | 1.63 | 6.02 | 1.27
TNDMRYPMKSE [TGDS_Y302] | 0.697 | 0.548 | 0.861 | 0.523 | 0.46 | 0.469 | 0.445 | 0.486 | 0.675 | 0.424 | 0.579 | 0.672 | 0.438 | 0.345 | 0.359 | 0.557
TNFRLYLRSLE [MTM1_Y71_YF] | 0.661 | 0.449 | 0.678 | 0.964 | 0.782 | 0.43 | 0.449 | 0.538 | 1.37 | 0.476 | 1.29 | 1.49 | 0.513 | 0.895 | 0.612 | 0.798
TNITEYCRDLI [RECQL_Y492_K487T] | 0.6 | 0.537 | 0.759 | 0.743 | 0.617 | 0.415 | 0.497 | 0.498 | 1.01 | 0.56 | 1.25 | 1.35 | 0.569 | 0.614 | 0.491 | 0.81
TPGPNYCPGFN [USH2A_Y463_R464C_YF] | 0.645 | 0.632 | 0.987 | 0.35 | 0.254 | 0.507 | 0.578 | 0.515 | 0.334 | 0.944 | 0.662 | 0.643 | 0.333 | 0.499 | 0.557 | 0.643
TPRNTYKMTSL [MKI67_Y849] | 0.891 | 0.805 | 1.36 | 0.445 | 0.545 | 0.428 | 0.475 | 0.386 | 0.477 | 0.459 | 0.477 | 0.512 | 0.395 | 0.323 | 0.443 | 0.496
TPRNTYKMTSV [MKI67_Y849_L854V] | 0.525 | 0.452 | 0.844 | 0.474 | 0.468 | 0.445 | 0.425 | 0.482 | 0.657 | 0.502 | 0.513 | 0.558 | 0.458 | 0.518 | 0.343 | 0.584
TRSYKYLLLSM [NF1_Y491] | 2.46 | 1.15 | 1.64 | 0.624 | 0.69 | 0.485 | 0.477 | 0.433 | 0.833 | 0.494 | 0.887 | 0.832 | 0.422 | 0.754 | 0.434 | 0.852
